Experimental data as given in article PMC7008241, “Radiolabeled Cationic Peptides for Targeted Imaging of Infection” (Contrast Media & Molecular Imaging, 2019).
Where “and” joins values, the source holds several entries; their conditions need not be identical. Identical values can stand only once. Where a SMILES comes first, the peptide text is derived from it. [ ]: non-standard residue; d: D form. The star is where a group is joined. DOTA = O=C(O)CN1CCN(CC(=O)O)CCN(CC(=O)*)CCN(CC(=O)O)CC1; X1 = CC(=O)c1ccc(OCCC*)cc1B(O)O

How the values were obtained:
[1] = test system: Staphylococcus aureus (SA) infected thigh muscle; experiment: in vivo; design: species or system mice; settings: mouse
Method: (§1) All animal experiments were performed according to animal use protocols approved by the University of Alabama at Birmingham Institutional Animal Care and Use Committee (IACUC). Animals were housed under controlled conditions with a natural light-dark cycle. They were allowed to adapt to the housing environment for at least 48 h prior to study. Biodistribution and PET imaging studies with ^64Cu-HLys-DOTA and ^64Cu-AB1-HLys-DOTA were conducted in mice intramuscularly (IM) infected in the thigh muscle with SA and PBS as a control. Thirty-six male mice (25–30 g, 4–5 weeks old) infected with SA were used for animal studies. For each peptide, 4 mice were used for small animal PET imaging at 1, 4, and 24 h, and then sacrificed at 24 h for a post-PET biodistribution. Another set of 4 mice each was used for biodistribution studies at 1 and 4 h. A similar set of mice was used for blocking studies with ^64Cu-AB1-HLys-DOTA peptide. In order to check the specificity of ^64Cu-AB1-HLys-DOTA for Gram-positive bacteria, imaging and post-PET biodistribution studies were conducted in another set of mice (four) intramuscularly (IM) infected in the thigh muscle with PA and PBS.
(§2) Mice for infection studies were anesthetized prior to the intramuscular infection of SA or PA. Animals were immobilized with isoflurane. Bacteria cells concentrated in sterile PBS were injected into the thigh muscle and the site of injection pinched to minimize bleeding. SA or PA suspension (50 μL, 2.6–2.8 × 10^7 CFU per mouse) was intramuscularly injected into the right thigh muscle, and sterile PBS (50 μL) was injected into the left thigh muscle as control. Mice were placed back into the cages and allowed to recover with frequent monitoring to identify any sign of extreme distress. The infection was allowed to develop for 3–5 days before intravenous injection of the radiolabeled probe. The muscles on the left and right thighs were harvested, homogenized, and plated on mannitol agar plates or cultured in LB broth to verify the presence of infection. In addition, [^18F]FDG imaging was also performed in infected animal models as described in the PET imaging section below to further confirm the existence of infection in the right thigh and the absence thereof in the left thigh.
(§3) Small animal PET/CT imaging studies were conducted in SA-infected and PA-infected animal models. Each radiolabeled peptide, 3.3–3.7 MBq (90–100 μCi), was administrated via tail vein injection of prewarmed mice under anesthesia. The inflammatory response caused by the infection was confirmed by intravenous injection of [^18F]FDG, 3.7 MBq (100 μCi), into mice infected on the right thigh muscle with SA or PA and on the left with PBS as control. For this small animal PET imaging, 1 and 4 h post-injection static scans were collected. Following imaging studies, the mice were sacrificed for biodistribution. Mice were allowed to recover from anesthesia until the time of imaging. Mice were anesthetized with 2‐3% isoflurane/oxygen and imaged on the small animal PET/CT scanner. Static images were collected at 1, 4, and 24 h for 15, 20, and 30 min, respectively. PET images were coregistered with CT image for anatomical colocalization. Regions of interest (ROI) were manually drawn over organs of interest with CT anatomical guidelines, and the associated radioactivity was measured using Inveon Research Workstation software. Standard uptake values (SUV) were calculated as nCi/cc × animal weight/injected dose, and comparisons in pharmacokinetics of radiolabeled peptides were assessed.

in vivo [2] = experiment: in vivo; design: species or system mice; settings: mouse, iv, total radioactivity
Method: as §1, §2, §3

in vivo [3] = experiment: in vivo; design: species or system mice; settings: mouse, iv, total radioactivity; remark: listed apart in the source
Method: as §1, §2
For biodistribution studies, 3.3–3.7 MBq (90–100 μCi) of ^64Cu-HLys-DOTA or ^64Cu-AB1-HLys-DOTA was injected into prewarmed tail vein of the animals under anesthesia. Animals were euthanized at 1 and 4 h after radiotracer administration (n = 4 for each tracer at each time point). At 24 h after small animal PET imaging, the mice were also euthanized for a post-PET biodistribution. In a similar set of experiment, excess of the unlabeled peptide, 150 nmol, was coinjected with the radiolabeled peptides per mouse. The organs of interest were collected, weighed, and measured for radioactivity content using a gamma counter. The data were background-corrected and decay-corrected. The biodistribution data were expressed as percentage of injected radioactive dose per gram of tissue (%ID/g) for selected organs as the mean value of four mice.

[4] = test system: Pseudomonas aeruginosa (PA), ATCC 47085; experiment: Bacterial cell uptake of 64Cu-labeled peptides in Pseudomonas aeruginosa; type: cell-based; settings: PA in PBS pH 7.4, 37°C, gamma counter, triplicates, mean ± SD
Excerpt: (§4) All solvents and reagents were obtained from Sigma-Aldrich Company unless otherwise specified. […] Diethylenetriaminepentaacetic acid (DTPA) was purchased from Sigma (St. Louis, MO). 1,4,7,10-Tetraazacyclododecane-1,4,7,10-tetraacetic acid mono-N-hydroxysuccinimide ester (DOTA-NHS-ester) was purchased from Macrocyclics (Dallas, Texas). C18 SepPak cartridges were obtained from Waters Corporation (Milford. MA). Radiometric instant thin-layer chromatography measurements were accomplished using a TLC scanner (Bioscan AR-2000 Scanner). Reverse-phase chromatography analysis was performed on a C18 column (PA) with an infinity diode-array UV detector (Agilent, Lake Forest, CA) and a PMT/NaI remote radioactive detector (LabLogic Systems Ltd, Brandon, FL). Laura radiochromatography software (LabLogic Systems Ltd, Brandon, FL) was used to quantify chromatograms by integration. Radioactive samples were counted using a 2480 Wizard II automatic gamma counter (PerkinElmer, Downers Grove, IL). Imaging studies were done by using […] (Sofie BioSciences) [CT-80 Kvp, 5 min (approximately 100 μm), PET-Resolution ≤1 mm]. Acquired PET/CT images were analyzed with InveonTM Research Workplace (IRW) (Siemens). […] At each time point, the mixture was spun down, washed twice with PBS, and the final bacterial pellets were measured using a gamma counter to determine the percent of associated radiolabeled peptide. […]

[5] = test system: Staphylococcus aureus (SA), ATCC 6538; experiment: Bacterial cell uptake of 64Cu-labeled peptides in Staphylococcus aureus; type: cell-based; settings: SA 0.9–1.3 × 10^7 CFU/mL in PBS pH 7.4, 37°C, 24 h, 0.925–0.999 MBq, gamma counter, triplicates, mean ± SD
Excerpt: as §4

[6] = male, mean SUV in the infected muscle
[7] = male, mean SUV of the heart (blood retention)
[8] = male, mean SUV of the heart (dose retention)
[9] = male, uptake in the control muscle

| Compound | fold increase in accumulation (SUV) vs. ^64Cu-HLys-DOTA at the infection [1] | SUV at 1 h (in vivo [2]; [6]) [SUV] | SUV at 4 h (in vivo [2]; [6]) [SUV] | SUV at 24 h (in vivo [2]; [6]) [SUV] | SUV at 1 h (in vivo [2]; [7]) [SUV] | SUV at 24 h (in vivo [2]; [8]) [SUV] | SUV at 1 h (in vivo [2]) [SUV] | SUV at 4 h (in vivo [2]) [SUV] | tissue uptake at 1 h (in vivo [3]; [9]) [%ID/g] | tissue uptake at 4 h (in vivo [3]; [9]) [%ID/g] | tissue uptake at 24 h (in vivo [3]; [9]) [%ID/g] | tissue uptake at 24 h (in vivo [3]) [%ID/g] | binding to PA (cell uptake) ([4]; 5 min after incubation) [%] | binding to PA (cell uptake) ([4]; 24 h after incubation) [%] | bacteria cell uptake (percent of associated radiolabeled peptide) [5] |
| --- | --- | --- | --- | --- | --- | --- | --- | --- | --- | --- | --- | --- | --- | --- | --- |
| CC(=O)c1ccc(OCCCSC[C@H](NC(=O)CNC(=O)[C@@H](CCCNC(=N)N)NC(=O)[C@@H](CC(N)=O)NC(=O)[C@@H](CCCNC(=N)N)NC(=O)[C@@H](Cc2c[nH]c3ccccc23)NC(=O)[C@@H](C)NC(=O)[C@H](NC(=O)[C@@H](Cc2c[nH]c3ccccc23)NC(=O)[C@@H](Cc2ccc(O)cc2)NC(=O)[C@@H](CCCNC(=N)N)NC(=O)CN2CCN(CC(=O)O)CCN(CC(=O)O)CCN(CC(=O)O)CC2)C(C)C)C(N)=O)cc1B(O)O [^64Cu-AB1-HLys-DOTA, metal not drawn] ({DOTA}-[dR][dY][dW][dV][dA][dW][dR][dN][dR]GC(X1)-NH2) | 2.4-4 fold | 0.7 ± 0.08 | 0.49 ± 0.04 | 0.31 ± 0.01 | 0.65 ± 0.08 | 0.26 ± 0.04 | 0.28 ± 0.1 | 0.19 ± 0.1 | 2.5 ± 0.5 | 1.1 ± 0.4 | 0.8 ± 0.1 | 0.49 ± 0.11 |  |  |  |
| CC(C)[C@@H](NC(=O)[C@@H](Cc1c[nH]c2ccccc12)NC(=O)[C@@H](Cc1ccc(O)cc1)NC(=O)[C@@H](CCCNC(=N)N)NC(=O)CN1CCN(CC(=O)O)CCN(CC(=O)O)CCN(CC(=O)O)CC1)C(=O)N[C@H](C)C(=O)N[C@H](Cc1c[nH]c2ccccc12)C(=O)N[C@H](CCCNC(=N)N)C(=O)N[C@H](CC(N)=O)C(=O)N[C@H](CCCNC(=N)N)C(=O)NCC(N)=O [^64Cu-HLys-DOTA, metal not drawn] ({DOTA}-[dR][dY][dW][dV][dA][dW][dR][dN][dR]G-NH2; N-terminus and C-terminus assumed) |  | 0.17 ± 0.06 | 0.16 ± 0.02 | 0.13 ± 0.01 | 0.25 ± 0.05 | 0.21 ± 0.04 |  |  | 0.6 ± 0.1 | 0.4 ± 0.1 |  |  | 1.9 ± 0.4 | 5.2 ± 0.3 | 39.12 ± 3.27% and 39.1 ± 3.3% |
